Source: article doi:10.1101/2021.09.17.460839, “Structural and functional characterization of Rv0792c from Mycobacterium tuberculosis: identifying small molecule inhibitors against GntR protein” (bioRxiv, 2021)

Target: the molecule itself
Assay: AUC

B1: (His)6-Rv0792c, wild type, GntR family (HutC subfamily) transcription factor from M. tuberculosis (natural protein)
chain: MTSVKLDLDAADLRISRGSVPASTQLAEALKAQIIQQRLPRGGRLPSERELIDRSGLSRVTVRAAVGMLQRQGWLVRRQGLGTFVADPVEQELSCGVRTITEVLLSCGVTPQVDVLSHQTGPAPQRISETLGLVEVLCIRRRIRTGDQPLALVTAYLPPGVGPAVEPLLSGSADTETTYAMWERRLGVRIAQATHEIHAAGASPDVADALGLAVGSPVLVVDRTSYTNDGKPLEVVVFHHRPERYQFSVTLPRTLPGSGAGIIEKRDFA
notes: not shown: His6, N-terminal, kept
For B1, the “stoichiometry N” value was 2.
